Results published in PMC9181698 (International Journal of Molecular Sciences, 2022).

B1: LW25.6, individual helix 2 of LCB1 (peptide)
chain: GHAEASMRVSDLIYEFMKKG
HELM: PEPTIDE1{[O=C1N[C@H]2[C@H](CS[C@H]2CCCCC(=O)[*:2])N1].[O=C(COCCOCCN[*:1])[*:2]].G.H.A.E.A.S.M.R.V.S.D.L.I.Y.E.F.M.K.K.G.[am]}$$$$V2.0
SMILES: CC[C@H](C)[C@H](NC(=O)[C@H](CC(C)C)NC(=O)[C@H](CC(=O)O)NC(=O)[C@H](CO)NC(=O)[C@@H](NC(=O)[C@H](CCCNC(=N)N)NC(=O)[C@H](CCSC)NC(=O)[C@H](CO)NC(=O)[C@H](C)NC(=O)[C@H](CCC(=O)O)NC(=O)[C@H](C)NC(=O)[C@H](Cc1c[nH]cn1)NC(=O)CNC(=O)COCCOCCNC(=O)CCCC[C@@H]1SC[C@@H]2NC(=O)N[C@@H]21)C(C)C)C(=O)N[C@@H](Cc1ccc(O)cc1)C(=O)N[C@@H](CCC(=O)O)C(=O)N[C@@H](Cc1ccccc1)C(=O)N[C@@H](CCSC)C(=O)N[C@@H](CCCCN)C(=O)N[C@@H](CCCCN)C(=O)NCC(N)=O
notes: source: synthetic peptide (Fmoc/tBu solid-phase synthesis, preparative HPLC)
B2: LW25.5, individual helix 1 of LCB1 (peptide)
chain: DKEWILQKIYEIMRLLDEL
HELM: PEPTIDE1{[O=C1N[C@H]2[C@H](CS[C@H]2CCCCC(=O)[*:2])N1].[O=C(COCCOCCN[*:1])[*:2]].D.K.E.W.I.L.Q.K.I.Y.E.I.M.R.L.L.D.E.L.[am]}$$$$V2.0
SMILES: CC[C@H](C)[C@H](NC(=O)[C@H](Cc1c[nH]c2ccccc12)NC(=O)[C@H](CCC(=O)O)NC(=O)[C@H](CCCCN)NC(=O)[C@H](CC(=O)O)NC(=O)COCCOCCNC(=O)CCCC[C@@H]1SC[C@@H]2NC(=O)N[C@@H]21)C(=O)N[C@@H](CC(C)C)C(=O)N[C@@H](CCC(N)=O)C(=O)N[C@@H](CCCCN)C(=O)N[C@H](C(=O)N[C@@H](Cc1ccc(O)cc1)C(=O)N[C@@H](CCC(=O)O)C(=O)N[C@H](C(=O)N[C@@H](CCSC)C(=O)N[C@@H](CCCNC(=N)N)C(=O)N[C@@H](CC(C)C)C(=O)N[C@@H](CC(C)C)C(=O)N[C@@H](CC(=O)O)C(=O)N[C@@H](CCC(=O)O)C(=O)N[C@@H](CC(C)C)C(N)=O)[C@@H](C)CC)[C@@H](C)CC
notes: as for B1

Target: T1, SARS-CoV-2 spike protein RBD-Fc fusion protein, wild type (SARS-CoV-2, UniProt P0DTC2)
T1 construct: source: bought: Sino Biological
Assay: ELISA
Conditions: both partners purified

Row | Binder | IC50
1 | B1 | > 200 nM
2 | B2 | > 200 nM
